PMC7327492 (2020)

The binders below were run against Recombinant B56α (UniProt Q15172 1-486) (assay: ITC).
Sequence of Recombinant B56α (Q15172 whole entry): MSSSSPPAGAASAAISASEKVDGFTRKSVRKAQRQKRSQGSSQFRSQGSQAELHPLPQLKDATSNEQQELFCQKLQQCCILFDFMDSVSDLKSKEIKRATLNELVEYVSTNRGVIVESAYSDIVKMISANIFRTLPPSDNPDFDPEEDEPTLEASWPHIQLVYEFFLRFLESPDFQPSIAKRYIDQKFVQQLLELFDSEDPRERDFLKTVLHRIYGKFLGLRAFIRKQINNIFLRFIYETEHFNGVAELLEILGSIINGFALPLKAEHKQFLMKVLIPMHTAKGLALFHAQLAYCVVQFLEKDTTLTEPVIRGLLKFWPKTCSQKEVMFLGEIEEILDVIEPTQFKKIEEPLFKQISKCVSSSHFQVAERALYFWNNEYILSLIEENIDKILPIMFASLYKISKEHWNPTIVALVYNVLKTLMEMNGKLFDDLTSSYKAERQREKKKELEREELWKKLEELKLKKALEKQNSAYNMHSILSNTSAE

Row | Binder | Kd
1 | His-tagged 4x(LxxIxE) B56 inhibitor (designed binder) TGSTGSTGSTGSTGSLPRSSTLPTIHEEEELSLCTGSTGSTGSTGSTGSLPRSSTLPTIHEEEELSLCTGSTGSTGSTGSTGSLPRSSTLPTIHEEEELSLCTGSTGSTGSTGSTGSLPRSSTLPTIHEEEELSLC | 100 nM
2 | TGSTGSTGSTGSTGSLPRSSTLPTIHEEEELSLC (designed binder) [His-tagged 1x(LxxIxE) B56 inhibitor] | 1300 nM
3 | His-tagged 2x(LxxIxE) B56 inhibitor (designed binder) TGSTGSTGSTGSTGSLPRSSTLPTIHEEEELSLCTGSTGSTGSTGSTGSLPRSSTLPTIHEEEELSLC | 200 nM
